# Results taken from patent US20230303695A1 (SHANGHAI XBH BIOTECHNOLOGY, published 2023).
# Numbering of substitutions follows the chain as printed. Numbers in names are those of the source.
# T1: recombinant human IGSF8 extracellular domain tagged by a human Fc region (IGSF8-hFc) (human, UniProt Q969P0 28-579, biotin label in Examples 17, 18 and 28 (site not given))
# T1 construct: also called IGSF8-Fc fusion protein; IGSF8-hFc-biotin; not shown: human Fc region
# T1 sequence: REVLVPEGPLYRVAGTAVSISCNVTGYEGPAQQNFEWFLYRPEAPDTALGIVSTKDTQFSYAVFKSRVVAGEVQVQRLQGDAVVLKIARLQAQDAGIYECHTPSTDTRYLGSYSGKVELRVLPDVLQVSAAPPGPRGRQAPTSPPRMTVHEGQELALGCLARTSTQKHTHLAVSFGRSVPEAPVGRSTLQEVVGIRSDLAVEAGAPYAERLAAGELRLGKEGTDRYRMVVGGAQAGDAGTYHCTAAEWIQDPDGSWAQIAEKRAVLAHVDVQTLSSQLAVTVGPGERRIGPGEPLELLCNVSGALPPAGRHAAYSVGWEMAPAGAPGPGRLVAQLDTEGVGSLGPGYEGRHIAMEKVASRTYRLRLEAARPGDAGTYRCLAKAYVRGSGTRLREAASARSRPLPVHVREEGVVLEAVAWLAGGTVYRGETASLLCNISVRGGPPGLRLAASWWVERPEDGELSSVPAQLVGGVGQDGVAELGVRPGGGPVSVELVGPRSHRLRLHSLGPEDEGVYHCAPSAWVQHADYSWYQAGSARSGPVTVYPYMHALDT
# B1: L1-02 (antibody, V domains shown)
# VH: QVQLVESGGGVVQPGRSLRLSCAASGFTFSTYGMHWVRQAPGKGLEWVAVIWDDGSYKYYGDSVKGRFTISRDNSKNTLYLQMNSLRAEDTAVYYCARDGSGWGYAFDIWGQGTMVTVSS
# VL: DIQLTQSPSSLSASVGDRVTITCQASQDISKPLNWYQHKPGKAPNPLVFDAANLETGVPPRFSATGSGTDFSLTITSLQPEDFATYYCQQYDSFPYTFGQGTRLDIK
# B2: L1VH-D53Y (antibody, V domains shown)
# VH: B1 VH with D53Y
# VL: B1 VL with K31E, P32Y
# B3: L1-10 (antibody, V domains shown)
# VH: B1 VH
# VL: B1 VL with K31E, P32Y, D50T, A51S
# B4: L1VH-D54T (antibody, V domains shown)
# VH: B1 VH with D54T
# VL: B1 VL with K31E, P32Y
# B5: L1-06 (antibody, V domains shown)
# VH: B1 VH
# VL: B1 VL with S30G, K31P, P32W
# B6: L1-12 (antibody, V domains shown)
# VH: B1 VH
# VL: B1 VL with K31E, P32Y, D50G, A52D
# B7: L1-08 (antibody, V domains shown)
# VH: B1 VH
# VL: B1 VL with S30G, K31A, P32Y
# B8: L1-09 (antibody, V domains shown)
# VH: B1 VH
# VL: B1 VL with K31E, P32Y, D50A, A51R, A52D
# B9: L1-03 (antibody, V domains shown)
# VH: B1 VH
# VL: B1 VL with K31E, P32Y, D50R, A51S, A52P
# B10: L1-15 (antibody, V domains shown)
# VH: B1 VH
# VL: B1 VL with S30M, P32T
# B11: L1-11 (antibody, V domains shown)
# VH: B1 VH
# VL: B1 VL with S30E, K31W, P32A
# B12: L1-05 (antibody, V domains shown)
# VH: B1 VH
# VL: B1 VL with S30T, P32G
# B13: L1-13 (antibody, V domains shown)
# VH: B1 VH
# VL: B1 VL with K31E, P32Y, A52P
# B14: L1-04 (antibody, V domains shown)
# VH: B1 VH
# VL: B1 VL with K31E, P32Y, D50G, A51S, A52P
# B15: L1-07 (antibody, V domains shown)
# VH: B1 VH
# VL: B1 VL with S30E, K31W, P32W
# B16: L1-14 (antibody, V domains shown)
# VH: B1 VH
# VL: B1 VL with K31E, P32Y, D50S, A51Q, A52P
# B17: L2-08 (antibody, V domains shown)
# VH: EVQLVESGGGLEQPGGSLRLSCAASGFTFRDYAMTWVRQAPGKGLEWVSSISGSGGSTYYADSVKGRFTISRDNSKNTLYLQMNSLRAEDTAIYYCARGEYSSGWPSWFDPWGQGTLVTVSS
# VL: DIQMTQSPSSLSASVGDRVTITCRASRTVGTFLNWYQQKPGKAPKALILGVSILEGGVPSRFSGSGSGTDFTLTISSLQPEDIATYYCQQSHDVPRTFGQGTKVEIK
# B18: L2-03 (antibody, V domains shown)
# VH: B17 VH with A24G
# VL: EIVLTQSPSSLSASVGDRVTISCRASRTVGTFLNWYQQRPGKPPQALILGVSILEGGVSSRFSGAGSGTEFSLTISSLQPEDIGTYYCQQSHDVPRTFGQGTKVDLR
# B19: L2-04 (antibody, V domains shown)
# VH: B17 VH
# VL: B18 VL
# B20: L2VL-G56S (antibody, V domains shown)
# VH: B17 VH with A24G, S57N
# VL: B18 VL with G56S
# B21: L2-06 (antibody, V domains shown)
# VH: B17 VH
# VL: B17 VL with P80L, I83F
# B22: L2VH-T35S (antibody, V domains shown)
# VH: B17 VH with A24G, T35S, S57N
# VL: B18 VL
# B23: L2VH-D31S (antibody, V domains shown)
# VH: B17 VH with A24G, D31S, S57N
# VL: B18 VL
# B24: L2VL-D93S (antibody, V domains shown)
# VH: B17 VH with A24G, S57N
# VL: B18 VL with D93S
# B25: L2VH-R98K (antibody, V domains shown)
# VH: B17 VH with A24G, S57N, R98K
# VL: B18 VL
# B26: L2-09 (antibody, V domains shown)
# VH: B17 VH
# VL: B17 VL with G50H, V51T, A84G
# B27: L2-07 (antibody, V domains shown)
# VH: B17 VH
# VL: B17 VL with A84G
# B28: L2VL-I53S (antibody, V domains shown)
# VH: B17 VH with A24G, S57N
# VL: B18 VL with I53S
# B29: L2VL-S52V (antibody, V domains shown)
# VH: B17 VH with A24G, S57N
# VL: B18 VL with S52V
# B30: L2-05 (antibody, V domains shown)
# VH: B17 VH with S50A
# VL: B18 VL
# B31: L2VH-R30S (antibody, V domains shown)
# VH: B17 VH with A24G, R30S, S57N
# VL: B18 VL
# B32: L2-02 (antibody, V domains shown)
# VH: B17 VH with A24G, S57N
# VL: B18 VL with G50H, V51T
# B33: L2VH-S50A (antibody, V domains shown)
# VH: B17 VH with A24G, S50A, S57N
# VL: B18 VL
# Biological target: T1, recombinant human IGSF8 extracellular …
# Assay: SPR, Ab captured
# Method: The binding affinities of the L1 and L2 antibodies to IGSF8 recombinant protein were determined by surface plasmon resonance (SPR). Briefly, anti-human Fab antibody was imobilized on acarboxyl-derivatized SPR chip surface, and the antibodies were captured on the resulting surface at 5 μg/ml for 30 seconds.
Kd,koff,kon,Binder
4.22 nM,0.00127 s⁻¹,300000 M⁻¹ s⁻¹,B1
365 nM,0.0168 s⁻¹,46100 M⁻¹ s⁻¹,B2
6.52 nM,0.00196 s⁻¹,301000 M⁻¹ s⁻¹,B3
571 nM,0.00131 s⁻¹,2290 M⁻¹ s⁻¹,B4
2.3 nM,0.00104 s⁻¹,453000 M⁻¹ s⁻¹,B5
3.08 nM,0.00142 s⁻¹,461000 M⁻¹ s⁻¹,B6
5.78 nM,0.00253 s⁻¹,437000 M⁻¹ s⁻¹,B7
5.47 nM,0.00223 s⁻¹,408000 M⁻¹ s⁻¹,B8
5.88 nM,0.00172 s⁻¹,293000 M⁻¹ s⁻¹,B9
4.28 nM,0.00155 s⁻¹,362000 M⁻¹ s⁻¹,B10
7.08 nM,0.0024 s⁻¹,339000 M⁻¹ s⁻¹,B11
6.17 nM,0.00148 s⁻¹,241000 M⁻¹ s⁻¹,B12
4.88 nM,0.00216 s⁻¹,443000 M⁻¹ s⁻¹,B13
7.33 nM,0.0022 s⁻¹,300000 M⁻¹ s⁻¹,B14
1.34 nM,0.000445 s⁻¹,332000 M⁻¹ s⁻¹,B15
6.41 nM,0.00244 s⁻¹,381000 M⁻¹ s⁻¹,B16
0.869 nM,0.000112 s⁻¹,129000 M⁻¹ s⁻¹,B17

Kd,koff,kon,Binder
3.27 nM,0.000465 s⁻¹,142000 M⁻¹ s⁻¹,B18
2.98 nM,0.000142 s⁻¹,47600 M⁻¹ s⁻¹,B19
29.1 nM,0.00311 s⁻¹,107000 M⁻¹ s⁻¹,B20
5.45 nM,0.000249 s⁻¹,45700 M⁻¹ s⁻¹,B21
22.8 nM,0.00139 s⁻¹,61100 M⁻¹ s⁻¹,B22
465 nM,0.00567 s⁻¹,12200 M⁻¹ s⁻¹,B23
68 nM,0.00202 s⁻¹,29700 M⁻¹ s⁻¹,B24
48.7 nM,0.00248 s⁻¹,51000 M⁻¹ s⁻¹,B25
0.475 nM,7.15e-05 s⁻¹,151000 M⁻¹ s⁻¹,B26
1.16 nM,0.000129 s⁻¹,111000 M⁻¹ s⁻¹,B27
1280 nM,0.00173 s⁻¹,1350 M⁻¹ s⁻¹,B28
64.5 nM,0.000806 s⁻¹,12500 M⁻¹ s⁻¹,B29
2.63 nM,0.000112 s⁻¹,42700 M⁻¹ s⁻¹,B30
146 nM,0.00165 s⁻¹,11400 M⁻¹ s⁻¹,B31
4.85 nM,0.000131 s⁻¹,27100 M⁻¹ s⁻¹,B32
23.7 nM,0.000486 s⁻¹,20500 M⁻¹ s⁻¹,B33
